Results from US12258605B2, “Alkane oxidation by modified hydroxylases” (The California Institute of Technology, priority 2005, dated 2025).

Columns and labels:
Assay type in all cases: biochemical
[1] = Reactions on alkanes, total turnovers (Table 18): propane
Protocol: (§1) Reactions on alkanes. Reactions with alkanes from pentane to decane were carried out at 3 mL-scale using 100 mM KPi pH 8.0 buffer containing 2% ethanol (to allow alkane solubilization) and purified protein. 2.5 mL KPi buffer were added with 60 μL of 90 mM alkane solution in ethanol (final conc.=1.8 mM), 150 μL enzyme solution at 1 μM (final conc.=50 nM), and 300 μL NADPH regeneration solution (100 units/mL isocitrate dehydrogenase, 70 mg/mL isocitrate, 1.5 mg/ml NADP^+). Vials were sealed and stirred for 24 hours at 4° C. 1 mL-aliquot of the reaction was removed, added with 10 μl internal standard (25 mM 1-bromohexane in ethanol), and extracted with 200 μl chloroform (30 sec vortexing, 1 min centrifugation at 10000 g). The organic phase was removed and analyzed by gas chromatography. Reactions with ethane, propane, and butane were carried out as described for longer alkanes with the only difference that alkane-saturated KPi buffer was used. Propane reactions with variants from HL5 and L9 libraries were performed on 1 mL-scale reaction using 20 nM enzyme to reduce oxygen limitation. Propane and butane reactions were analyzed by direct injection of reaction solution on the GC using 1-pentanol as internal standard. Ethane reaction products were functionalized (see below) and analyzed by GC using 1-butanol as internal standard. All measurements were performed in triplicate.
(§2) Products from alkane reactions were identified and quantified by gas chromatography using authentic standards and calibration curves with internal standards. For the reactions with alkanes from pentane to decane, GC analyses were carried out using a Shimadzu GC-17A gas chromatograph, Agilent HP5 column (30 m×0.32 mm×0.1 μm film), 1 μL injection, FID detector, and the following separation program: 250° C. inlet, 250° C. detector, 50° C. oven for 3 min, 5° C./min gradient to 100° C., 25° C./min gradient to 230° C., and 230° C. for 3 min. For butane and propane (TTN) reactions, GC analyses were carried out using a Hewlett-Packard 5890 Series II Plus gas chromatograph, Supelco SPB-1 column (60 m×0.52 mm×0.5 μm film), 0.5 μL injection, FID detector, and the following separation program: 250° C. inlet, 275° C. detector, 80° C. oven for 2 min, 10° C./min gradient to 110° C., 25° C./min gradient to 275° C., and 275° C. for 2.5 min. For ethane and propane (rate) reactions, analysis of reaction mixtures was carried out by derivatization to alkyl nitrites followed by GC-ECD analysis. For laurate, reaction product analysis was carried out by derivatization with N-methyl-N-trimethylsilylheptafluorobutyramide followed by extraction with hexane. Organic solutions were analyzed by FID-GC.
Because 35E11 was only marginally stable, the engineering strategy described herein (see below) involved an initial stabilization step followed by iterative rounds of mutagenesis and screening. Random, saturation and site-directed mutagenesis methods were used to create libraries of mutants (FIG. 35), which were screened for activity on a propane surrogate, dimethyl ether. Positives were confirmed in a re-screen and purified for further analysis. Reactions with purified enzymes were carried out in sealed vials in the presence of propane-saturated buffer and a cofactor regeneration system. Improvement in propane total turnover number-moles of propanol produced per mole of enzyme—was a selection criterion for taking a mutant to the next round.
TTNs for each variant-substrate pair were determined using standardized reaction conditions (identical enzyme and substrate concentration, incubation time, cofactor regeneration system) (Table 18). TTN values were used to assess performance because TTN is a cumulative measure of both catalytic and coupling efficiency and because mutants were selected based on improvement in this property. […]

[2] = Kinetic constants for n-alkanes: octane
Protocol: Rate measurements. Initial rates of product formation were determined at 25° C. in 100 mM KPi pH 8.0 buffer using purified protein (100 nM) and a substrate concentration of 1.6 mM. In a 5 mL-vial, 20 μL of alkane solution (in ethanol) were dissolved in 400 μL KPi buffer, to which 500 μL enzyme solution at 100-200 nM was added. Reaction was initiated by adding 100 μL of 5 mM NADPH solution, followed by stirring at 300 rpm for 1 minute, and quenched by adding 200 μL chloroform and stirring at 800 rpm for 10 sec. Solutions were transferred to an Eppendorf tube, to which internal standard (10 μL 25 mM 1-bromohexane in ethanol) was added. Tubes were vortexed for 10 sec and centrifuged for 30 sec at 10,000 g. Organic phase was removed and analyzed by GC. For propane, reactions were carried out in a 5 mL-scale using 100-400 nM purified enzyme, propane-saturated buffer (propane concentration≈1.6 mM) and a final NADPH concentration of 500 μM. Reactions were stopped by addition of 200 μL H2SO4 conc. and analyzed by derivatization to alkyl nitrites followed by GC-ECD analysis as described below.
as §2
To further investigate the evolution of substrate specificity, kinetic constants for the C5 to C8 alkanes were determined from Michaelis-Menten plots (Table 19). The preference of 35E11 and its evolutionary predecessors for medium-chain alkanes is indicated by their high C8/C5 specificities ((kcat/Km)8/(kcat/Km)5˜100), where Km appears to be the major contributing factor. C8/C5 specificity decreases to ˜5 in the immediate precursors of P450PMO and then switches altogether to the smaller alkane, becoming 0.4 in P450PMO. In P450PMO, catalytic efficiency is highest on propane and decreases along the alkane series, driven by decreasing kcat.

[3] = Reactions on alkanes, total turnovers (Table 18): ethane; conditions: ethane (2 C atoms)
Protocol: as §1, §2
(§3) TTNs for each variant-substrate pair were determined using standardized reaction conditions (identical enzyme and substrate concentration, incubation time, cofactor regeneration system) (Table 18). TTN values were used to assess performance because TTN is a cumulative measure of both catalytic and coupling efficiency and because mutants were selected based on improvement in this property. To facilitate comparison among the variants, TTNs were normalized to the highest value in the series (MTN=Maximal Turnover Number) and plotted for the increasing-sized substrates (FIG. 38). A gradual shift of the enzyme's substrate preference during laboratory evolution is evident from these profiles. The marginal activity of wild-type BM3 on these substrates (MTN=150) is restricted to the long-chain alkanes, where it is a promiscuous function of BM3's high C12-C20 fatty acid hydroxylase activity. In the first evolutionary intermediates, substrate preference centers on medium-chain alkanes […], reflecting their selection for activity on octane. In 35E11, selected for activity on propane, preference still centers on C6-C8 alkanes but now extends towards the shorter ones, including propane. Propane activity becomes prevalent with the transition from variant ETS8 to 19A12. […]

[4] = Reactions on alkanes, total turnovers (Table 18): hexane; conditions: hexane (6 C atoms)
Protocol: as §1, §2, §3

[5] = TTN normalized to the highest value of the variant's series
[6] = total turnovers, standardized reaction conditions

B1: P450PMO: P450 BM-3 variant, SEQ ID NO:125; 7-7 plus G443A and D698G; propane monooxygenase (protein)
chain: TIKEMPQPKTFGELKNLPLLNTDKPVQALMKIADELGEIFKFEAPGCVTRYISSQRLIKEACDESRFDKNLSQELKFFRDFGGDGLFTSWTHEINWKKAHNILLPSFSQQAMKGYHAMMVDIAVQLVQKWERLNADEHIEVSEDMTRLTLDTIGLCGFNYRFNSFYRDQPHPFIISMVRALDEVMNKPQRANPDDPAYDENKRQCQEDIKVMNDLVDKIIADRKARGEQSDDLLTQMLNGKDPETGEPLDDGNISYQIITFLIAGHETTSGLLSFALYFLVKNPHVLQKVVEEAARVLVDPVPSYKQVKQLKYVGMVLNEALRLWPTFPAFSLYAKEDTVLGGEYPLEKGDEVMVLIPQLHRDKTVWGDDVEEFRPERFENPSAIPQHAFKPFGNGQRACIGQQFALHEATLVLGMMLKHFDFEDHTNYELDIKETLTLKPEAFVVKAKSKKIPLGGIPSPSTGQSAKKVRKKAENAHNTPLLVLYGSNMGTAEGTARDLADIAMSKGFAPQVATLDSHAGNLPREGAVLIVTASYNGHPPDNAKQFVDWLDQASADEVKGVRYSVFGCGDKNWATTYQKVPAFIDETLAAKGAENIADRGEADASDDFEGTYEEWREHMWSDVAAYFNLDIENSEDNKSTLSLQFVDSAADMPLAKMHGAFSTNVVASKELQQPGSARSTRHLEIELPKEASYQEGGHLGVIPRNYEGTVNRVTARFGLDASQQIRLEAEEEKLAHLPLAKTVSVEELLQYVELQDPVTRTQLRAMAAKTVCPPHKVELEALLEKQAYKEQVLAKRLTMLELLEKYPACEMKFSEFIALLPSIRPRYYSISSSPRVDEKQASITVSVVSGEAWSGYGEYKGIASNYLAELQEGDTITCFISTPQSEFTLPKDPETPLIMVGPGTGVAPFRGFVQARKQLKEQGQSLGEAHLYFGCRSPHEDYLYQEELENAQSEGIITLHTAFSRMPNQPKTYVQHVMEQDGKKLIELLDQGAHFYICGDGSQMAPAVEATLMKSYADVHQVSEADARLWLQQLEEKGRYAKDVWAG
modifications: Mutant P450PMO protein sequence
notes: 7-7 plus G443A and D698G; propane monooxygenase
[1]; compared to 139-3
  increase of total turnovers on propane: 100 fold
[1]; propane (3 C atoms), TTN normalized to the highest value of the variant's series
  % rel. act.: 100.0%
[1]; propane (3 C atoms), total turnovers, standardized reaction conditions
  TTN: 20500 ± 1900
[1]; propane-saturated buffer, cofactor regeneration system
  turnovers on propane (TTN): more than 20,000
[2]
  Km: 185 ± 40 µM
  kcat: 0.217 ± 0.067 s⁻¹
[3]; [5]
  % rel. act.: 12.4%
[3]; [6]
  TTN: 2550 ± 250
[4]; [5]
  % rel. act.: 12.7%
[4]; [6]
  TTN: 2600 ± 205
